Laboratory results: PMC12345224

Experiments:
Experiment in all cases: bacterial two-hybrid (β-galactosidase activity)
Conditions in all cases: in vivo, E. coli BTH101; T18 and T25 fusions; parent: est. 1400; read off a plot
FleN^L260R = biological target: FleN^L260R
FleN^A139V = biological target: FleN^A139V
FleN^R218C = biological target: FleN^R218C
FleN^V24L = biological target: FleN^V24L

For wild-type FleN L260R, the response (Miller unites) (FleN^L260R) was 1000.

With wild-type FleN A139V the response (Miller unites) (FleN^A139V) was 870.

In the case of wild-type FleN R218C, the response (Miller unites) (FleN^R218C) is reported as 1200.

wild-type FleN V24L gave a response (Miller unites) (FleN^V24L) of 130.
